This is an account of results in the RNAGym collection of RNA variant scans (doi:10.1093/molbev/msab373).

First the molecules themselves.
B1: Azoarcus group I ribozyme (parent)
chain: GUGCCUUGCGCCGGGAAACCACGCAAGGGAUGGUGUCAAAUUCGGCGAAACCUAAGCGCCCGCCCGGGCGUAUGGCAACGCCGAGCCAAGCUUCGGCGCCUGCGCCGAUGAAGGUGUAGAGACUAGACGGCACCCACCUAAGGCAAACGCUAUGGUGAAGGCAUAGUCCAGGGAGUGGCGAAAGUCACACAAACCGG

This series covers variants of B1. The series can be described thus: reverse-splicing fitness (ratio to wild type); higher = more active; in vitro selection; Mg2+ level not given. In short, it runs like this: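 An in vitro group I ribozyme library with randomized positions was T7-transcribed and gel-purified. In triplicate, 10 pmol RNA in EPPS pH 7.5 was reacted with 50 pmoles of a 30-nt RNA substrate for 1 h at 37 °C across several added MgCl2 levels (1–48 mM), then stopped with EDTA. Products were reverse transcribed from a substrate-complementary primer, PCR-amplified and sequenced (HiSeq 4000). Fitness is a variant's read proportion after selection over that before, normalised to wild type.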
Consider GUGCCUUGCGCCGGGAAACCACGCAAGGGAUGGUGUCAAAUUCGGCGAAACCUAAGCGCCCGCCCGGGCGUAUGGCAACGCAGAGCCAAGCUUCGGCGCCUGCGCCGAUGCAGGUGUAGAGACUAGACGGCACCCACCUAAGGCCAACGUUAUGGUGAAGGCAUAGUCAAGGGAGUGGCGAAAGUCACACAAACCGG [C82A A111C A145C C150U C169A], for which the reverse-splicing fitness amounted to 0.00801.
As for GUGCCUUGCGCCGGGAAACCACGCAAGGGAUGGUGUCAAAUUCGGCGAAACCUAAGCGCCCGCCCGGGCGUAUGGCAACGCAGAGCCAAGCUUCGGCGCCUGCGCCGAUGCAGGUGUAGAGACUAGACGGCACCCACCUAAGGCCAACGUUAUGGUGAAGGCAUAGUCGAGGGAGUGGCGAAAGUCACACAAACCGG [C82A A111C A145C C150U C169G], the reverse-splicing fitness stood at 0.0076.
As to GUGCCUUGCGCCGGGAAACCACGCAAGGGAUGGUGUCAAAUUCGGCGAAACCUAAGCGCCCGCCCGGGCGUAUGGCAACGCAGAGCCAAGCUUCGGCGCCUGCGCCGAUGCAGGUGUAGAGACUAGACGGCACCCACCUAAGGCCAACGUUAUGGUGAAGGCAUAGUCUAGGGAGUGGCGAAAGUCACACAAACCGG [C82A A111C A145C C150U C169U], the reverse-splicing fitness is 0.0121.
In the case of GUGCCUUGCGCCGGGAAACCACGCAAGGGAUGGUGUCAAAUUCGGCGAAACCUAAGCGCCCGCCCGGGCGUAUGGCAACGCAGAGCCAAGCUUCGGCGCCUGCGCCGAUGCAGGUGUAGAGACUAGACGGCACCCACCUAAGGCCAACGCUAUGGUGAAGGCAUAGUCAAGGGAGGGGCGAAAGUCACACAAACCGG [C82A A111C A145C C169A U176G], the reverse-splicing fitness was 0.00693.
Turning to GUGCCUUGCGCCGGGAAACCACGCAAGGGAUGGUGUCAAAUUCGGCGAAACCUAAGCGCCCGCCCGGGCGUAUGGCAACGCAGAGCCAAGCUUCGGCGCCUGCGCCGAUGCAGGUGUAGAGACUAGACGGCACCCACCUAAGGCCAACGCUAUGGUGAAGGCAUAGUCAAGGGAGAGGCGAAAGUCACACAAACCGG [C82A A111C A145C C169A U176A], the reverse-splicing fitness was 0.0135.
For GUGCCUUGCGCCGGGAAACCACGCAAGGGAUGGUGUCAAAUUCGGCGAAACCUAAGCGCCCGCCCGGGCGUAUGGCAACGCAGAGCCAAGCUUCGGCGCCUGCGCCGAUGCAGGUGUAGAGACUAGACGGCACCCACCUAAGGCCAACGCUAUGGUGAAGGCAUAGUCAAGGGAGCGGCGAAAGUCACACAAACCGG [C82A A111C A145C C169A U176C], the reverse-splicing fitness is 0.00942.
As to GUGCCUUGCGCCGGGAAACCACGCAAGGGAUGGUGUCAAAUUCGGCGAAACCUAAGCGCCCGCCCGGGCGUAUGGCAACGCAGAGCCAAGCUUCGGCGCCUGCGCCGAUGCAGGUGUAGAGACUAGACGGCACCCACCUAAGGCCAACGCUAUGGUGAAGGCAUAGUCGAGGGAGGGGCGAAAGUCACACAAACCGG [C82A A111C A145C C169G U176G], the reverse-splicing fitness amounted to 0.00783.
The result for GUGCCUUGCGCCGGGAAACCACGCAAGGGAUGGUGUCAAAUUCGGCGAAACCUAAGCGCCCGCCCGGGCGUAUGGCAACGCAGAGCCAAGCUUCGGCGCCUGCGCCGAUGCAGGUGUAGAGACUAGACGGCACCCACCUAAGGCCAACGCUAUGGUGAAGGCAUAGUCGAGGGAGAGGCGAAAGUCACACAAACCGG [C82A A111C A145C C169G U176A] reads 0.0269.
As for GUGCCUUGCGCCGGGAAACCACGCAAGGGAUGGUGUCAAAUUCGGCGAAACCUAAGCGCCCGCCCGGGCGUAUGGCAACGCAGAGCCAAGCUUCGGCGCCUGCGCCGAUGCAGGUGUAGAGACUAGACGGCACCCACCUAAGGCCAACGCUAUGGUGAAGGCAUAGUCGAGGGAGCGGCGAAAGUCACACAAACCGG [C82A A111C A145C C169G U176C], the reverse-splicing fitness is 0.0216.
As for GUGCCUUGCGCCGGGAAACCACGCAAGGGAUGGUGUCAAAUUCGGCGAAACCUAAGCGCCCGCCCGGGCGUAUGGCAACGCAGAGCCAAGCUUCGGCGCCUGCGCCGAUGCAGGUGUAGAGACUAGACGGCACCCACCUAAGGCCAACGUUAUGGUGAAGGCAUAGUCCAGGGAGAGGCGAAAGUCACACAAACCGG [C82A A111C A145C C150U U176A], the reverse-splicing fitness turned out to be 0.0236.
The result for GUGCCUUGCGCCGGGAAACCACGCAAGGGAUGGUGUCAAAUUCGGCGAAACCUAAGCGCCCGCCCGGGCGUAUGGCAACGCAGAGCCAAGCUUCGGCGCCUGCGCCGAUGCAGGUGUAGAGACUAGACGGCACCCACCUAAGGCCAACGUUAUGGUGAAGGCAUAGUCCAGGGAGCGGCGAAAGUCACACAAACCGG [C82A A111C A145C C150U U176C] reads 0.0355.
As for GUGCCUUGCGCCGGGAAACCACGCAAGGGAUGGUGUCAAAUUCGGCGAAACCUAAGCGCCCGCCCGGGCGUAUGGCAACGCAGAGCCAAGCUUCGGCGCCUGCGCCGAUGCAGGUGUAGAGACUAGACGGCACCCACCUAAGGCCAACGUUAUGGUGAAGGCAUAGUCCAGGGAGGGGCGAAAGUCACACAAACCGG [C82A A111C A145C C150U U176G], the reverse-splicing fitness came to 0.00993.
GUGCCUUGCGCCGGGAAACCACGCAAGGGAUGGUGUCAAAUUCGGCGAAACCUAAGCGCCCGCCCGGGCGUAUGGCAACGCAGAGCCAAGCUUCGGCGCCUGCGCCGAUGCAGGUGUAGAGACUAGACGGCACCCACCUAAGGCCAACGCUAUGGUGAAGGCAUAGUCUAGGGAGAGGCGAAAGUCACACAAACCGG [C82A A111C A145C C169U U176A]: the reverse-splicing fitness was determined as 0.0142.
Under GUGCCUUGCGCCGGGAAACCACGCAAGGGAUGGUGUCAAAUUCGGCGAAACCUAAGCGCCCGCCCGGGCGUAUGGCAACGCAGAGCCAAGCUUCGGCGCCUGCGCCGAUGCAGGUGUAGAGACUAGACGGCACCCACCUAAGGCCAACGCUAUGGUGAAGGCAUAGUCUAGGGAGCGGCGAAAGUCACACAAACCGG [C82A A111C A145C C169U U176C] stands 0.0138; under GUGCCUUGCGCCGGGAAACCACGCAAGGGAUGGUGUCAAAUUCGGCGAAACCUAAGCGCCCGCCCGGGCGUAUGGCAACGCAGAGCCAAGCUUCGGCGCCUGCGCCGAUGCAGGUGUAGAGACUAGACGGCACCCACCUAAGGCCAACGCUAUGGUGAAGGCAUAGUCUAGGGAGGGGCGAAAGUCACACAAACCGG [C82A A111C A145C C169U U176G], 0.00646.
